First the molecules themselves.
T1: Soluble ASGR-1 (recombinant, biotinylated) (human, UniProt P07306 62-291, limits assumed, biotinylated)
T1 construct: also called recombinant, soluble ASGR-1 biotinylated protein
T1 sequence: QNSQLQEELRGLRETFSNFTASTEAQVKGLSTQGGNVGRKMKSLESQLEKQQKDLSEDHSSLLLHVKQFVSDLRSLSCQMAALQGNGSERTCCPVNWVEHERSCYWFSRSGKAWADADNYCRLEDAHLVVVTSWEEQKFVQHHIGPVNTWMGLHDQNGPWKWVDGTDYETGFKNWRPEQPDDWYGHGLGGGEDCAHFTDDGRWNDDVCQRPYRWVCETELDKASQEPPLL

B1: 75G3 (antibody, V domains shown)
VH: QVQLQQWGAGLLKPSETLSLTCAVYGGSLSGSYWSWIRQPPGKGLEWIGEINLSGSTNYNPSLKSRVTISVDTSKSQFSLTLRSVTAADTAVYYCARDYGGLDYWGQGTLVTVSS
VL: EIVLTQSPGTLSLSPGERATLSCRARQNVDSSYLAWYQQKPGQAPRLLIYGASSRATGIPDRFSGSGSGTDFTLTISRLEPEDFAVFYCQQYERSPWTFGQGTKVEIK
notes: Tested as hybridoma supernatant
B2: 176H4 (antibody, V domains shown)
VH: QVQLVESGGGVVQPGRSLRLSCAASGFTFSSYGMHWVRQAPGKGLEWVAIIWYDGSYKYYADSVKGRFTISRDNSKNTLYLQMSSLRAEDTAVYYCARDAHDFWSGYFAYWGQGALVTVSS
VL: DIVMTQTPLSLSVTPGQPASISCKSSQSLLHGDGKTYLYWYLQKPGQPPQLLIYEVSNRFSGVPDRFSGSGSGTDFTLKISRVEAEDVGIYYCMQSIQIPWTFGQGTRVEIK
notes: as for B1
B3: 54E9 (antibody, V domains shown)
VH: QVQLVQSGAEVKKPGASVKVSCKASGYTFNSYGISWVRLAPGQGLEWMGWISAYNGNTKNAQKLQGRVTMTTDTSTSTAYMELRSLRSDDTAVYYCARHDFWSGYYKGMDVWGQGTTVTVSS
VL: not shown
notes: as for B1
B4: 4H6 (antibody, V domains shown)
VH: QVQLVQSGAEVKKPGASVKVSCKASGYTFTDYYLHWVRQAPGQGLEWMGWIHPNSGGTNYAQKFQGRVTMTRDTSISTAYMGLSSLRSDDTAVYYCARDGTSSFDYWGQGTLVTVSS
VL: DIQMTQSPSSVSASVGDRVTITCRASQGISRWLAWYQQKPGKAPKLLIYGASSLQSGVPSRFSGSGSGTDFTLTISSLQPEDFAIYYCQQANSFPFTFGPGTKVDIK
notes: as for B1
B5: 72G9 (antibody, V domains shown)
VH: EVQLVESGGGLVKPGGSLRLSCAASGFTFSSYSMNWVRQAPGKGLEWVSSISGSSSYIYYADSVKGRFTISRDNAKNSLYLQMNSLRAEDTAVYFCARGGSRGFDPWGQGTLVTVSS
VL: DIQMTQSPSSLSASVGDRVTITCRASQSITSYLNWYQQKPGKAPKLLIYTASSLQSGVPSRFSGSGSGTDFTLTISSLQPEDFATYYCQQSHSFPFTFGPGTKVDIK
notes: as for B1
B6: 56E5 (antibody, V domains shown)
VH: QVQLVQSGAEVKKPGASVKVSCQASGYTFTGYHMHWVRQAPGQGLEWMGWINPNNNATNYAQKFQGRVTMTRDTSISTAYMELRRLRSDDTAVYHCARDGTSSFDYWGQGTLVTVSS
VL: DIQMTQSPSSVSASVGDRVTITCRASQGIRKWLAWYQQKPGKAPKLLIYAASSLQSGVPSRFSGSGSGTDFTLTISSLQPEDFATYYCQQANSFPFTFGPGTKVDIK
notes: as for B1
B7: 202A3 (antibody, V domains shown)
VH: QVQLEQSGAEVKKPGASVKVSCKASGYTFTSYDINWVRQATGQGLEWLGWMNPKRGNTGYAQKFQGRVTMTRNTSISTAHMELSSLRSEDTAVYYCARGRYSREDYYYYYDMDVWGQGTTVTVSS
VL: DIQMSQSPSSLSASVGDRVTITCRASQGIRNDLGWYQQKPGKAPKRLICAASRLQSGVPSRFSGSGSGTEFTLTISSLQPEDFAIYYCLQHHDYPFTFGPGTKVDIK
notes: as for B1
B8: 6G7 (antibody, V domains shown)
VH: QVQLVESGGGVVQPGRSLRLSCAASGFTFSSYGMHWVRQTPGKGLEWVAIISYVGKNKYYADSVKGRFTISRDNSKNTLYLQMNSLRAEDTAVYYCARRGNSYGGYGMDVWGQGTTVTVSS
VL: DIQMTQSPSSRSASVGDRVTITCQASQDISNYLNWCQQKPGKALKLLIYDASTLETGVPSRFSGSGSGTDFTFTISSVQPEDIATYYCQQYDNVPITFGQGTRLEIK
notes: as for B1
B9: 193E7 (antibody, V domains shown)
VH: QVQLQQWGAGLLKPSETLSLTCAVYGGSFSGYFWTWIRQPPGKGLEWIGEINHSGSTNYNPSLKSRVTISVDTSKNQFSLKLSSVTAADTAVYYCARDYGADYWGQGTLVAVSA
VL: DIQMTQSPSSLSASVGDRVTITCRASQGIRNDLGWYQQKPGKAPKRLIYSASSLQRGVPSRFSGSGSGTEFTLTISSLQPEDFATYYCLQHKRYPLTFGGGTKVEIK
notes: as for B1
B10: 7F4 (antibody, V domains shown)
VH: QLQLQESGPGLVKPSETLSLTCTVSGGSISRSSYYWGWIRQPPGKGLEWIGNIYYSGATYYNPSLKSRVTISVDTSTNQFSLKLSSVTAADTAVYYCARHSGSWSLDYWGQGTLVTVSS
VL: DIQMTQSPSSLSASVGDRVTITCRTSQGIRNDLGWYQQKPGKAPKRLIYAASNLQSGVPSRFSGSGSGTEFTLTISSLQPEDFATYYCLQHSAYPLTFGGGTKVEIK
notes: as for B1
B11: 12D2 (antibody, V domains shown)
VH: EVQLVESGGGLVKPGGSLRLSCAASGFTFSSYSMNWVRQAPGKGLEWVSSISSSSSYIYYADSVKGRFTISRDNAKNSLYLQMNSLRAEDTAVYYCARLGDYWGQGTLVAVSS
VL: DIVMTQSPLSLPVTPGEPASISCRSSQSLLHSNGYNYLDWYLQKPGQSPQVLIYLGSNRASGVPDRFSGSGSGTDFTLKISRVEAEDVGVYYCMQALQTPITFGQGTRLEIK
notes: as for B1
B12: 194C10 (antibody, V domains shown)
VH: QVQLQQWGAGLLKPSETLSLTCAVSGGSFRYYYWSWIRQPPGKGLEWFGEINHSGSTNYNPSLKSRVTISIDTSKNQFSLKLRSVTAADTAVYYCARDYGAFDIWGQGTMVTVSS
VL: EIVLTQSPGTLSLSPGERATLSCRASPSVNSGYLAWYQQKPGQTPRLLIFGASSRATGIPDRFSASGSGADFTLTISRLEPEDFAVYFCQQYESSPWTFGQGTKVEIK
notes: as for B1
B13: 218G4 (antibody, V domains shown)
VH: QVQLVESGGGVVQPGRSLRLSCAASGFTFSSYGLHWVRQAPGKGLEWVAVIWYDGSNKYYADSVKGRFTISRDNSKNTLYLQMNSLRVEDTAVYYCANWYYYYYGMDVWGQGTTVTVSS
VL: QSVLTQPPSVSAAPGQKVTISCSGSSSNIGNNYVSWYQQLPGTAPKLLLYDSNKRPSGIPARFSGSKSGTSATLGITGLQTGDEADYYCGTWDSSLNTVVFGGGTKLTVL
notes: as for B1
B14: 198D2 (antibody, V domains shown)
VH: QVQLVESGGGVVQPGRSLRLSCAASGFTFRSYGMHWVRQAPGKGLEWVAVIIYDGSYKYYADSVKGRFTISRDNSKNTLYLQMNSLRAEDTAVYYCARTYSGGMDVWGQGTTVTVSS
VL: QSVLTQPPSVSAAPGQKVTISCSGSSSNIGSNYVSWYQQLPGTAPKVLIYDNNKRPSGIPDRFSGSKSGTSATLGITGLQTGDEADYYCGTWDSRLNVGVFGGGTKLTVL
notes: as for B1

This experiment concerns the target T1, Soluble ASGR-1 (recombinant, …). Description: limiting antigen bead FACS; biotinylated soluble ASGR-1 coated at 2.5 ng/mL on LumAvidin beads.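 Further: hybridoma supernatants of ligand-competing antibodies bound to antigen-loaded beads, read by flow cytometry on an iQue Screener in calcium-containing buffer, higher fluorescence meaning stronger relative affinity.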
With B1, the “FACS Geomean” value was determined as 35800.
In the case of B2 it was 29400; in that of B3, 6490.
In the case of B4 it was 2990.
In the case of B5 it was 34000; in that of B6, 22600.
With B7, the “FACS Geomean” value stood at 2150.
In the case of B8 it was 2290.
In the case of B9 it was 18300; in that of B10, 4910.
For B11, the “FACS Geomean” value worked out at 105.
In the case of B12 it was 21900; in that of B13, 15100.
On to B14, for which the “FACS Geomean” value amounted to 1870.

Values taken from patent publication US20210163601A1 (Amgen, published 2021).
